Changes are numbered by the printed parent chain.
T1: His6-MBP-G9a^641-1193 (WT) (human, UniProt Q96KQ7 641-1193)
T1 construct: G9a (EHMT2), human, residues 641-1193 (ANK, Pre-SET and SET domains); also called WT G9a; source: E. coli, purified
T1 sequence (looked up): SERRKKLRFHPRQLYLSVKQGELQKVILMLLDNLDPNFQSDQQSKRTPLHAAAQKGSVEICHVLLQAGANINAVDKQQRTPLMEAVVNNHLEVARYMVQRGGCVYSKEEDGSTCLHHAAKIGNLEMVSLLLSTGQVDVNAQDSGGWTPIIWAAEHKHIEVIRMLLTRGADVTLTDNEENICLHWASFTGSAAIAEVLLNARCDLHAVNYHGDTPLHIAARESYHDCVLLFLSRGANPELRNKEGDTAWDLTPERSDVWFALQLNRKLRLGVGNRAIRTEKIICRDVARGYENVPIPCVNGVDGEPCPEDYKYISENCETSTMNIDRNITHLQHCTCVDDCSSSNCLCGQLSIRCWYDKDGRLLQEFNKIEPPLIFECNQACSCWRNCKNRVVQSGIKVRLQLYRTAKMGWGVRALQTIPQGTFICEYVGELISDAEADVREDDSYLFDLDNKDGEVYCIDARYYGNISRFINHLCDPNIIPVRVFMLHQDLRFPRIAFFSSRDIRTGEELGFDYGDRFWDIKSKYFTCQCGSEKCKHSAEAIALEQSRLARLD

B1: full-length SUMO-CtBP2 (natural protein)
chain: not shown
notes: Named SUMO-CtBP2 in the pull-downs; also called SUMO-CtBP2-FL; CtBP2-FL; source: E. coli Rosetta 2 (DE3), purified (Ni-NTA); not shown: SUMO, N-terminal, kept
B2: SUMO-G9a (881–913)-FLAG (domain or fragment, human, UniProt Q96KQ7 881-913, looked up)
chain: NKEGDTAWDLTPERSDVWFALQLNRKLRLGVGN
notes: also called Pre-SET fragment; G9a Pre-SET domain; not shown: SUMO, N-terminal, kept; FLAG, C-terminal, kept
B3: SUMO-G9a^881–1210-FLAG (domain or fragment, human, UniProt Q96KQ7 881-1210, looked up)
chain: NKEGDTAWDLTPERSDVWFALQLNRKLRLGVGNRAIRTEKIICRDVARGYENVPIPCVNGVDGEPCPEDYKYISENCETSTMNIDRNITHLQHCTCVDDCSSSNCLCGQLSIRCWYDKDGRLLQEFNKIEPPLIFECNQACSCWRNCKNRVVQSGIKVRLQLYRTAKMGWGVRALQTIPQGTFICEYVGELISDAEADVREDDSYLFDLDNKDGEVYCIDARYYGNISRFINHLCDPNIIPVRVFMLHQDLRFPRIAFFSSRDIRTGEELGFDYGDRFWDIKSKYFTCQCGSEKCKHSAEAIALEQSRLARLDPHPELLPELGSLPPVNT
notes: G9a (EHMT2), human, residues 881-1210; also called CD; G9a C-terminal catalytic domain; not shown: SUMO, N-terminal, kept; FLAG, C-terminal, kept
B4: SUMO-G9a^881–913-FLAG T891R (domain or fragment, human, UniProt Q96KQ7 881-913, looked up)
chain: B2 chain with T11R
notes: source: E. coli Rosetta 2 (DE3), purified; not shown: SUMO, N-terminal, kept; FLAG, C-terminal, kept
B5: SUMO-G9a^881–913-FLAG P892E (domain or fragment, human, UniProt Q96KQ7 881-913, looked up)
chain: B2 chain with P12E
notes: as for B4

Assays:
Conditions in all cases: both partners purified
[1] = molecular target: T1, His6-MBP-G9a^641-1193 (WT); assay: pull-down; MBP pull-down of His6-MBP-G9a(641-1193) WT or Δ885–893 with full-length CtBP2; same procedure as the FLAG pull-down with the respective affinity resin
[2] = molecular target: B1; assay: pull-down; FLAG-tagged G9a (or GLP) fragments immobilised on anti-FLAG resin, incubated with CtBP protein 2 h at 4 °C; 50 mM Tris-HCl pH 8.0, 150 mM NaCl, 2 mM DTT, 0.1% NP-40; eluted with FLAG peptide, SDS-PAGE
[3] = molecular target: T2, CtBP2 (residues 31–364) (human, UniProt P56545 31-364); assay: as above
T2 construct: Tag-free by the methods; source: E. coli Rosetta 2 (DE3), purified (Ni-NTA, SUMO protease, SEC; ion exchange and gel filtration for crystals); not shown: His6, N-terminal, cleaved; SUMO, N-terminal, cleaved

[4] = molecular target: full-length SUMO-CtBP1 (human, UniProt Q13363 1-440); assay: as above

binding result [1]	binding result [2]	binding result [3]	binding result [4]	Binder
binds	–	–	–	B1
–	binds	binds	binds	B2
–	binds	–	–	B3
–	binds	–	–	B4
–	binds	–	–	B5

Reference: article PMC12809078, “CtBP1/2 oligomerization promotes G9a-Mediated transcriptional repression” (The Journal of Biological Chemistry, 2025)
